Measurements reported in paper PMC2834951 (Nature structural & molecular biology, 2009).

T1: human Ubc13 (human, UniProt P61088 1-152)
T1 sequence (looked up): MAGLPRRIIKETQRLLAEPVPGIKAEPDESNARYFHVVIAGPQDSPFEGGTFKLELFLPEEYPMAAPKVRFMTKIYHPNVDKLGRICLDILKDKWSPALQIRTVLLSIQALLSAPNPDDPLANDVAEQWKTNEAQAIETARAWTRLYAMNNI

B1: human TRAF6 RZ1 (residues 50-159) (domain or fragment, UniProt Q9Y4K3 50-159, looked up)
chain: MEEIQGYDVEFDPPLESKYECPICLMALREAVQTPCGHRFCKACIIKSIRDAGHKCPVDNEILLENQLFPDNFAKREILSLMVKCPNEGCLHKMELRHLEDHQAHCEFAL
B2: human TRAF6 RZ123 (residues 50-211), wild type (domain or fragment, UniProt Q9Y4K3 50-211, looked up)
chain: MEEIQGYDVEFDPPLESKYECPICLMALREAVQTPCGHRFCKACIIKSIRDAGHKCPVDNEILLENQLFPDNFAKREILSLMVKCPNEGCLHKMELRHLEDHQAHCEFALMDCPQCQRPFQKFHINIHILKDCPRRQVSCDNCAASMAFEDKEIHDQNCPLA
B3: human TRAF6 RZ12 (residues 50-187) (domain or fragment, UniProt Q9Y4K3 50-187, looked up)
chain: MEEIQGYDVEFDPPLESKYECPICLMALREAVQTPCGHRFCKACIIKSIRDAGHKCPVDNEILLENQLFPDNFAKREILSLMVKCPNEGCLHKMELRHLEDHQAHCEFALMDCPQCQRPFQKFHINIHILKDCPRRQV

How the values were obtained:
human Ubc13 = molecular target: T1, human Ubc13; assay: SEC
SAXS = molecular target: the molecule itself; assay: SAXS

Row | Binder | binding result (human Ubc13) | stoichiometry N (SAXS)
1 | B1 | binds | –
2 | B2 | – | 2
3 | B3 | binds | –
